The values below come from paper PMC12111036.

Experiment [1] has as its target Tyrosine kinase receptor B (TrkB) (not stated (human SH-SY5Y or mouse HT22 cells cultured)) (UniProt Q16620). The experiment in a line: co-IP; control cells without added BDNF; native lysis; IP of 100 μL whole-cell lysate with anti-TrkB or anti-p75 antibody and protein A&G beads at 4 °C; Western blot with anti-BDNF antibody; band intensity in percent of the control WCL band. In general terms: A western blot detects proteins with antibodies after separation by electrophoresis.

For experiment [2], the target named is p75 receptor (not stated (human SH-SY5Y or mouse HT22 cells cultured)) (UniProt P08138). Described as above.
Experiment [3] concerns the target Tyrosine kinase receptor B (TrkB) (not stated (human SH-SY5Y or mouse HT22 cells cultured)) (UniProt Q16620). Kind of experiment: co-IP; cells incubated 48 h with BDNF 1.0 nM, alone or with Aβ42M/Aβ42O 0.2 μM and/or CA/EGCG 100 μM or IG3/BCP 2.0 μM; native lysis; IP with anti-TrkB or anti-p75 antibody and protein A&G beads at 4 °C; Western blot with anti-BDNF antibody; band intensity in percent of the control WCL band.

In experiment [4] the target is p75 receptor (not stated (human SH-SY5Y or mouse HT22 cells cultured)) (UniProt P08138). The description is as above.
Experiment [5] addresses Amyloid-β protein 1–42 fibrils (Aβ42F) (human) (UniProt P05067). The experiment in a line: ELISA; indirect ELISA; Aβ42 species or HSA (2.0 μM) coated on 96-well plates at 4 °C for 12 h, blocked with 5% nonfat dry milk in TBS; BDNF 20 pg/mL added, 37 °C, 24 h; bound BDNF detected with anti-BDNF antibody; binding rate in percent of the BDNF added; also run with CA/EGCG (50 μM) or IG3/BCP (2.0 μM).

Experiment [6] deals with Amyloid-β protein 1–42 monomers (Aβ42M) (human) (UniProt P05067). The experiment is described as above.
Experiment [7] has as its target Amyloid-β protein 1–42 oligomers (Aβ42O) (human) (UniProt P05067). Described as above.
In experiment [8] the target is Amyloid-β protein 1–42 protofibrils (Aβ42P) (human) (UniProt P05067). The experiment is described as above.

Chain of p75 receptor (not stated (human SH-SY5Y or mouse HT22 cells cultured)) (P08138 29-427): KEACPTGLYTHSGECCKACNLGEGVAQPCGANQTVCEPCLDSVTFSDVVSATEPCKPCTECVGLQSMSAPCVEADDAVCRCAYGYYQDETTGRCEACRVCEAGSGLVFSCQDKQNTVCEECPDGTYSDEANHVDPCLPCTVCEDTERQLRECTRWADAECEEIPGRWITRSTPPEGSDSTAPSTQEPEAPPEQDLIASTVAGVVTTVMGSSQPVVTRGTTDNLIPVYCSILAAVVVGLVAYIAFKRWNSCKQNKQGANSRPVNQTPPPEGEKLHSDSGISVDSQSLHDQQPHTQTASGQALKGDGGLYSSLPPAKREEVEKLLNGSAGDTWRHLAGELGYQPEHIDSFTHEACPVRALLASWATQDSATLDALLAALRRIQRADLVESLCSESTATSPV

In the case of “Endogenous BDNF of the control cells (ligand)”, the figures for the BDNF on Co-IP beads, percent of control WCL (no BDNF added) in experiment [1] and in experiment [2] were 44.1% and 31.9%, respectively.
In experiment [3], “Human brain-derived neurotrophic factor (BDNF) (ligand)” showed a BDNF on Co-IP beads, percent of control WCL (BDNF added) of 85%; a BDNF on Co-IP beads, percent of control WCL (BDNF with Aβ42M and CA/EGCG) of 89.3%; a BDNF on Co-IP beads, percent of control WCL (BDNF with Aβ42M and IG3/BCP) of 92%; a BDNF on Co-IP beads, percent of control WCL (BDNF with Aβ42M) of 88.3%. In addition, in experiment [3], the BDNF on Co-IP beads, percent of control WCL (BDNF with Aβ42O and CA/EGCG) was 72.2%; the BDNF on Co-IP beads, percent of control WCL (BDNF with Aβ42O and IG3/BCP) stood at 73.4%; the BDNF on Co-IP beads, percent of control WCL (BDNF with Aβ42O) was 58.1%. In experiment [4], the BDNF on Co-IP beads, percent of control WCL (BDNF added) was found to be 70%; the BDNF on Co-IP beads, percent of control WCL (BDNF with Aβ42M and CA/EGCG) is 73.4%; the BDNF on Co-IP beads, percent of control WCL (BDNF with Aβ42M and IG3/BCP) came to 83.2%; the BDNF on Co-IP beads, percent of control WCL (BDNF with Aβ42M) amounted to 71.9%. Further, in experiment [4], the BDNF on Co-IP beads, percent of control WCL (BDNF with Aβ42O and CA/EGCG) amounted to 62.1%; the BDNF on Co-IP beads, percent of control WCL (BDNF with Aβ42O and IG3/BCP) is 61.7%; the BDNF on Co-IP beads, percent of control WCL (BDNF with Aβ42O) turned out to be 64.3%. In addition, the binding rate in experiment [5] was less than 5%. This substance also gave a binding rate in experiment [6] of more than 10%. Further, the binding rate in experiment [7] was more than 10%. The same substance returned a binding rate in experiment [8] of less than 5%.
